Experimental data as given in article PMC5750235, “Trapping IgE in a closed conformation by mimicking CD23 binding prevents and disrupts FcεRI interaction” (Nature Communications, 2018).

Tests used:
IgE Fc Cε3–4 fragment = biological target: T1, IgE Fc Cε3–4 fragment (human, UniProt P01854, (N-acetylglucosamine)2(mannose)5 hepta-saccharide on N394); assay: crystal structure; 026 sdab:IgE Fc complex, 5 mg/ml in 20 mM HEPES, 50 mM NaCl, pH 7.2; sitting drops, 0.1 M imidazole pH 7.0, 11-12% PEG 20,000; 3.4 Å; settings: both partners purified
T1 construct: human IgE heavy chain constant region, domains Cε3 and Cε4, as found in the crystals; Not a designed construct: the crystals held this fragment and not the Cε2–4 that was expected; also called IgE Cε3–4; source: HEK-293; a small fraction in the purified IgE Fc Cε2–4 preparation, crystallized with 026 sdab

[1] = biological target: the molecule itself; assay: as above

| stoichiometry N (IgE Fc Cε3–4 fragment) | Binder | binding result [1] |
| --- | --- | --- |
| 2 sdab per IgE Fc | 026 sdab (VHH, llama-derived, humanized single-domain antibody; Synthetic gene; also called sdab 026; anti-IgE sdab 026) VHH: EVQLLESGGGLVQPGGSLRLSCAASGFTFGNYDMAWVRQAPGKRPEWVSSIDTGGDITHYADSVKGRFTISRDNAKNTLYLQMNSLRPEDTAVYWCATDEEYALGPNEFDYYGQGTLVTVSS |  |
|  | IgE Fc Cε3–4 fragment (domain or fragment, human, (N-acetylglucosamine)2(mannose)5 hepta-saccharide on N394, human IgE heavy chain constant region, domains Cε3 and Cε4, as found in the crystals; Not a designed construct: the crystals held this fragment and not the Cε2–4 that was expected; also called IgE Cε3–4; source: HEK-293; a small fraction in the purified IgE Fc Cε2–4 preparation, crystallized with 026 sdab) RGVSAYLSRPSPFDLFIRKSPTITCLVVDLAPSKGTVNLTWSRASGKPVNHSTRKEEKQRNGTLTVTSTLPVGTRDWIEGETYQCRVTHPHLPRALMRSTTKTSGPRAAPEVYAFATPEWPGSRDKRTLACLIQNFMPEDISVQWLHNEVQLPDARHSTTQPRKTKGSGFFVFSRLEVTRAEWEQKDEFICRAVHEAASPSQTVQRAVSVNP | binds |
